# Assay: soluble on expression in E. coli; label from the status in PepcDB or PDB records
row,Sequence,soluble on expression in E. coli
1,MFPSFLRRTAAKNGSYANEISSSIIINRPAERLFDLWRKPETLPILMGHFASIEILNHTDSNWRINTPIGSLIEWQARIIDEKPGEYIHWRSLEGARVPNEGRLSFQPAASEAGTAVTLTIRYNPPGGLIGKKIGQMFDMFSRDMLTKTLYRFKKLAEDERVLEHHHHHH,not soluble
2,MSELIIYNGKVYTEDGKIDNGYIHVKDGQIVAIGEVDDKAAIDNDTTNKIQVIDAKGHHVLPGFIDIHIHGGYGQDAMDGSYDGLKYLSENLLSEGTTSYLATTMTQSTDKIDNALTNIAKYEAEQDVHNAAEIVGIHLEGPFISENKVGAQHPQYVVRPFIDKIKHFQETANGLIKIMTFAPEVEGAKEALETYKDDIIFSIGHTVATYEEAVEAVERGAKHVTHLYNAATPFQHREPGVFGAAWLNDALHTEMIVDGTHSHPASVAIAYRMKGNERFYLITDAMRAKGMPEGEYDLGGQKVTVQSQQARLANGALAGSILKMNHGLRNLISFTGDTLDHLWRVTSLNQAIALGIDDRKGSIKVNKDADLVILDDDMNVKSTIKQGKVHTFS,not soluble
3,MGSDKIHHHHHHMDYLTTNKIAWDARTRVHLTSDFYDVEGFLSGKISLTEIELNELAVAGKSLLHLQCHFGLDTLSWARMGAKVTGVDLSEVAIAEACKLAQQTQLSAEFICSDVYSVVGKVEPQDIVFTSYGAIVWLPDLTLWAQTIAACLKPGGQFYMAEFHPAQQLFDGYSYFNRGEPDIEQEGTYTENASDDQQTLMCWSHSLSEVINALLQAGLELVFFHEFAFSPYNCFEGLEAQADGRYVLIHQGQQVPLVYSISARKPV,not soluble
4,MLICNDKSNPKTLLEEIMALRPWRKGPFEISQIKIDSEWDSSIKWDLVKNATPLKDKVVADVGCNNGYYLFKMLEHGPKSLVGFDPGVLVKKQFEFLAPFFDKEKKIIYESLGVEDLHEKYPNAFDVIFCLGVLYHRKSPLEALKALYHALKIKGELVLDTLIIDSPLDIALCPKKTYAKMKNVYFIPSVSALKGWCERVGFENFEILSVLKTTPKEQRKTDFILGQSLEDFLDKTDPSKTLEGYDAPLRGYFKMLKPSKR,not soluble
5,MSPAYLCARPRTRASVTFRPTCGVNLPFHADRARTVSTSTNSATVLWLGYQAPNSISTAVSGAVANHAAKDLQKFQTALQSRNPDQRKVVIGYSYGSTVAGKAASSSELDVRARHFRGDGYSIALNNAVEIKGLEHHHHHH,not soluble
6,MGSDKIHHHHHHMGFVKPFSKINGSIIMVILGLLASACGQSGSETGGLVDANEPVSPQPNLGEQQGVLEQNLPVPNNQQTDYFRVILYGNSHVSGLPSLIQLLINTGVPQVRVEVKNVGGGFLDESYYNDAYQARLTATPWTHAIFQGQKYSQSGTSIYPTTAAQKWLDKAKSLGITPILFPEHPQDGKLEEGEYVYQLHQGITSMQSSCLAPIPLVWERVIQLLPDVHLHAPDGNHASSLGNFLTALVFYEVITGRSADLLPYLSNIAISEQIQSIFGQVVSEVLADKPACPTF,not soluble
7,MSLKISIVTSTNVYADIAKNIVGKYGSAKAIIKNSATDPHDFEPTTQDAKELSSTNIIVANGLGYDSWMNKLASSVDKKPVLVGEELMKLKKGANPHIWYSLSMPTEYVDYLVKRLSKIDSKHKAYFEANGKKYLAKINQVKALAKNSKKTDKMVFVSEPVFDYALAEAGYKIGDKDFEKAVENNTDPSPKTINRMTNDIKNKKIAFFVNNTQSSSSTVKTFVKLAKQNNIPVLNVRETIPNHTTYLNWMKENYQNLANISKEGHHHHHH,soluble
8,MEWPRFGRVVLKPFSAGLSEAEWKGLYETFRDPEVAEWNGSSPLRSPFWLFKRFVLAEARRKDRVAFVILDEKGEYLGTLELYDLTPEEATLGILIGRKDRWGQGYGTEAVRAALDYAFRVLGLRRVKLRTFAHNLRARRAFQKAGFREVGVVPGPRGREDVHMEVRREDLGPEA,soluble
9,MTAHFPFDNSYVALPPNFFARVAPTPVAAPRLIKLNRPLAVQLGLDPDLLETPEGAEILSGNQMPETAASIAMAYAGHQFGNFVPQLGDGRAILLGEVVDRNGVRRDIQLKGAGRTPFSRMGDGRAALGPVLREYIVSEAMAALGIPTTRSLAAVLTGETVLRDPIQPGAVLTRVASSHIRVGTFQYFAARGDLASVRALADHAIARHYPEAAQAPSPYLALLEGVIGRQAELVASWMMVGFIHGVMNTDNCSVAGETIDYGPCAFMDTFDPKTVYSSIDQFGRYAYGNQPPIALWNLTRLAECLVRLLADDDDKGIEIAQTALGGFAEQFNAAYLAKLAAKLGLFTSQPDDQQLSQEFLTALAKGEADFTLAFRRLSDAAVDPSDLGEVRALFADPAAFDEWAPRWRARIATEPQDATTRQAAMRRVNPAYIPRNHRIEAVIRAAVDRDDFAPFEEILTVLANPFEEKAEFARYAEPPQPHEQVLETFCGTAAALEHHHHHH,soluble

# — the DeepSol protein solubility set
